Data published in US20240218070A1 (MERUS N V, published 2024).

How the values were obtained:
[1] = biological target: T1, human TGF-βRII expressed on cells (human, UniProt P37173 23-567); assay: cell-based or functional assay
[2] = biological target: T1, human TGF-βRII expressed on cells; assay: cell-based or functional assay; remark: listed apart in the source

T1 sequence (P37173 23-567 limits assumed, form in doubt): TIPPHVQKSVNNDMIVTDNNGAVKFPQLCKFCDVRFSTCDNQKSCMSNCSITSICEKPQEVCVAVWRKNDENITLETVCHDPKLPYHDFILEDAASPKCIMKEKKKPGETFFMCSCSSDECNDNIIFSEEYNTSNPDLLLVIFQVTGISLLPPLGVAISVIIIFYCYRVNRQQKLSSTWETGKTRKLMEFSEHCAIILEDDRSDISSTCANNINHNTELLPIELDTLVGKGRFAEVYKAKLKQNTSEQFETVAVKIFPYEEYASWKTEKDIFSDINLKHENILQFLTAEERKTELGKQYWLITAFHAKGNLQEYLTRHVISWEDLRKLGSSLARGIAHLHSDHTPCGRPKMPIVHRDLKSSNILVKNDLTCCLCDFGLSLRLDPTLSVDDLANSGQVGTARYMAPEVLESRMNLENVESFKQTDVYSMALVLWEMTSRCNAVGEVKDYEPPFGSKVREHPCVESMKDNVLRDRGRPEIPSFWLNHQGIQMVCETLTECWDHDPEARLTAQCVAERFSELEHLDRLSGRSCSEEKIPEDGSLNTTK

- IL-11 IC50, TGF-β1-stimulated primary colon CAFs [1]: 0.0526 µg/mL
- pSMAD2 IC50, TGF-β1-stimulated primary colon CAFs [1]: 0.00929 ug/ml
- Primary CAF IL-11 IC50, BLDA [2]: 1.04 µg/mL
- Primary CAF IL-11 IC50, COAD(1) [2]: 1.22 µg/mL
- Primary CAF IL-11 IC50, COAD(2) [2]: 0.313 µg/mL
- Primary CAF IL-11 IC50, GBM [2]: 0.264 µg/mL
- Primary CAF IL-11 IC50, HNSC [2]: 20.2 µg/mL
- Primary CAF IL-11 IC50, LUAD [2]: 0.765 µg/mL
- Primary CAF IL-11 IC50, LUSC [2]: 0.085 µg/mL
- Primary CAF IL-11 IC50, MEL [2]: 0.588 µg/mL
- Primary CAF IL-11 IC50, OV [2]: 0.191 µg/mL
- Primary CAF IL-11 IC50, PAAD [2]: 0.38 µg/mL
- Primary CAF pSMAD IC50, BLDA [2]: 0.087 ug/ml
- Primary CAF pSMAD IC50, COAD(1) [2]: 0.081 ug/ml
- Primary CAF pSMAD IC50, COAD(2) [2]: 0.023 ug/ml
- Primary CAF pSMAD IC50, GBM [2]: 0.048 ug/ml
- Primary CAF pSMAD IC50, HNSC [2]: 0.714 ug/ml
- Primary CAF pSMAD IC50, LUAD [2]: 0.078 ug/ml
- Primary CAF pSMAD IC50, LUSC [2]: 0.125 ug/ml
- Primary CAF pSMAD IC50, MEL [2]: 0.117 ug/ml
- Primary CAF pSMAD IC50, OV [2]: 0.188 ug/ml
- Primary CAF pSMAD IC50, PAAD [2]: 0.126 ug/ml
B1: Analog reference TGF-βRII antibody TGF1 (antibody, human IgG1, kappa, V domains shown)
VH: QLQVQESGPGLVKPSETLSLTCTVSGGSISNSYFSWGWIRQPPGKGLEWIGSFYYGEKTYYNPSLKSRATISIDTSKSQFSLKLSSVTAADTAVYYCPRGPTMIRGVIDSWGQGTLVTVSS
VL: EIVLTQSPATLSLSPGERATLSCRASQSVRSYLAWYQQKPGQAPRLLIYDASNRATGIPARFSGSGSGTDFTLTISSLEPEDFAVYYCQQRSNWPPTFGQGTKVEIKR
